Assay results published in patent US20170030918A1 (MOR NUCO ENTERPRISES, published 2017).

Assays:
serum albumin = biological target: T1, serum albumin (human, UniProt P02768 25-609); assay: 2-D gel electrophoresis / western blot of patient sera
T1 construct: Protein from patient sera on a denaturing 2-D blot; also called Ab
Method: (§1) Serum was prepared from 5 ml of blood collected by venipuncture (with tourniquet) in standard B & D 13×100 (7 ml) vacutainer clot tubes (or equivalent) with or without hemoguard closure. After approximately 30 min at room temperature to allow for clotting, the clot was pelleted by centrifugation for 5 to 10 min at 2,500 to 3,000 rpm. Clot-free serum was decanted into a clean tube, labeled and analyzed fresh or stored frozen.
(§2) For western blot analysis, 30 μl of sera was added to 120 μl of Rehydration Buffer (7 M urea, 2 M thiourea, 2% (w/v) CHAPS [(3-[(3-cholamidopropyl)dimethylammonio]-1-propane-sulfonate), a nondenaturing zwitterionic detergent], 0.5% (w/v) ASB-14 (amidosulfobetaine-14, a zwitterionic detergent), 0.5% (v/v) ampholytes pH 3-10 (Bio-Rad), 0.5% (v/v) immobilized pH gradient (IPG) buffer pH 3-10 (Amersham-Pharmacia Biotech) and 65 mM dithiothreitol). The samples were quickly vortexed to mix sera with Rehydration Buffer. Four to six mg of protein were loaded for analysis. The samples were electrophoresed in the first dimension by using a commercial flatbed electrophoresis system (Ettan IPGphor 3, Amersham-Pharmacia Biotech) with IPG dry strips (Amersham). A linear pH range of 3 to 10 on 7 cm IPG strips was used. The IPG strips were rehydrated with the samples overnight at room temperature. […]

serotransferrin = biological target: T2, serotransferrin (human, UniProt P02787 20-698); assay: 2-D gel / western blot of patient sera
T2 construct: Protein from patient sera on a denaturing 2-D blot; also called Serrotransferrin
T2 sequence (P02787 20-698 limits assumed): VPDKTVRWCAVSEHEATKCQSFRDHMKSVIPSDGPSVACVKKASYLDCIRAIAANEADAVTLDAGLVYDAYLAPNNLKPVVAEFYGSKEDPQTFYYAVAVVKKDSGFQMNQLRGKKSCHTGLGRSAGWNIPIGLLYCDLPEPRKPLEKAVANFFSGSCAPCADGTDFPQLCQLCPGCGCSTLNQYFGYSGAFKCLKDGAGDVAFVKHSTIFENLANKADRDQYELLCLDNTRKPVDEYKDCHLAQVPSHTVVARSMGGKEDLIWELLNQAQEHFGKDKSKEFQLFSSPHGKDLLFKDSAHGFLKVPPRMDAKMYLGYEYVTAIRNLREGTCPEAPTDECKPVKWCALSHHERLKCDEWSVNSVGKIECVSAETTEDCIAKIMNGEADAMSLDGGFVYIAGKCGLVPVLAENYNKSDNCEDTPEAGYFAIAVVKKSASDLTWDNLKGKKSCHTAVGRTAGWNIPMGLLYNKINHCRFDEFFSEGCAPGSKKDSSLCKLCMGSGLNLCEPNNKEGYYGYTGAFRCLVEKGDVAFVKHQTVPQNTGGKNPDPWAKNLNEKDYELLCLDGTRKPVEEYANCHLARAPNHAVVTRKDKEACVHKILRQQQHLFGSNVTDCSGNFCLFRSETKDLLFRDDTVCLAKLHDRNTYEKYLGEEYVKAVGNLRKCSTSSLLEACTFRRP
Method: as §1, §2

T1 sequence (P02768 25-609 limits assumed): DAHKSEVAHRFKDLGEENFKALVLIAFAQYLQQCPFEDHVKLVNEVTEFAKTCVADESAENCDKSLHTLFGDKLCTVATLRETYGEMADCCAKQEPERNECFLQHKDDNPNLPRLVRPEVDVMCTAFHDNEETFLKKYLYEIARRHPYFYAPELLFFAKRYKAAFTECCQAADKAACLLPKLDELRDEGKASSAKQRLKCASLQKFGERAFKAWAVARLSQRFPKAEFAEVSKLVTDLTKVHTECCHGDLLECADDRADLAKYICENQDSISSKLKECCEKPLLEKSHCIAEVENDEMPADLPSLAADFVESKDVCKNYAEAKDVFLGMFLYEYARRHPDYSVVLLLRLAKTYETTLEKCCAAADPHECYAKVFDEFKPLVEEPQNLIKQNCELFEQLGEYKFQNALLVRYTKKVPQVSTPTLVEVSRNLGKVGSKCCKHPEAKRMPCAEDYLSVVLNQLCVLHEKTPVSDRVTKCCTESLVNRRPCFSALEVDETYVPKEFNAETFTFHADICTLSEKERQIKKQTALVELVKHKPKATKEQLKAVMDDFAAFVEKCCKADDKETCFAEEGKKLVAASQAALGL

B1: recombinant anti-ENOX2 single chain variable region antibody carrying an S-tag, ScFv(S) (scFv)
scFv: EVKLQESGTEVVKPGASVKLSCKASGYIFTSYDIDWVRQTPEQGLEWIGWIFPGEGSTEYNEKFKGRATLSVDKSSSTAYMELTRLTSEDSAVYFCARGDYYRRYFDLWGQGTTVTVSSGGGGSGGGGSGGGGSENVLTQSPAIMSASPGERVTMTCSASSSIRYIYWYQQKPGSSPRLLIYDTSNVAPGVPFRFSGSGSGTSYSLTINRMEAEDAATYYCQEWSGYPYTFGGGTKLELKAKETAAAKFERQHMDS
notes: Derived from the hybridoma that makes the ENOX2-specific monoclonal antibody; also called pan ENOX2 recombinant scFv antibody; recombinant anti-ECTO-NOX antibody (single chain variable region ScFv)
Serum albumin
  binding result: no binding
serotransferrin
  binding result: binds
